Assay results reported in paper PMC3789972, “Human Mitochondrial Chaperone (mtHSP70) and Cysteine Desulfurase (NFS1) Bind Preferentially to the Disordered Conformation, Whereas Co-chaperone (HSC20) Binds to the Structured Conformation of the Iron-Sulfur Cluster Scaffold Protein (ISCU)*” (The Journal of Biological Chemistry, 2013).
Values belong to the molecule of their own block, whether it stands above or below them.

Legend:
[1] = target: human mitochondrial DnaK-type chaperone mtHSP70, mature form (human) (UniProt P38646)
[2] = target: human ISCU(N90A), mature form (human); assay: NMR titration; 1H,15N TROSY-HSQC of 0.5 mM U-15N-ISCU or U-15N-ISCU(N90A), aliquots of 0.4 mM unlabeled HSC20 added up to equimolar; TKDM buffer, 25 °C; %S from the Trp-76 cross-peaks and chemical shift perturbations
[3] = target: human iron-sulfur cluster scaffold protein ISCU, wild type, mature form (human) (UniProt Q9H1K1); assay: as above
[4] = target: human ISCU(N90A), mature form (human); assay: NMR titration; 1H,15N HSQC / TROSY-HSQC of 0.5 mM U-15N-ISCU or variant, aliquots of 0.5 mM unlabeled mtHSP70 added up to equimolar; TKDM buffer (50 mM Tris-HCl pH 7.5, 150 mM KCl, 5 mM DTT, 10 mM MgCl2), 25 °C; %S from the Trp-76 cross-peaks
[5] = target: human ISCU(H105A), mature form (human); assay: as above
[6] = target: human mitochondrial DnaK-type chaperone mtHSP70, mature form (human, UniProt P38646 47-679); assay: cell-based or functional assay
Sequence of human mitochondrial DnaK-type chaperone mtHSP70, mature form (human, UniProt P38646 47-679) (P38646 47-679): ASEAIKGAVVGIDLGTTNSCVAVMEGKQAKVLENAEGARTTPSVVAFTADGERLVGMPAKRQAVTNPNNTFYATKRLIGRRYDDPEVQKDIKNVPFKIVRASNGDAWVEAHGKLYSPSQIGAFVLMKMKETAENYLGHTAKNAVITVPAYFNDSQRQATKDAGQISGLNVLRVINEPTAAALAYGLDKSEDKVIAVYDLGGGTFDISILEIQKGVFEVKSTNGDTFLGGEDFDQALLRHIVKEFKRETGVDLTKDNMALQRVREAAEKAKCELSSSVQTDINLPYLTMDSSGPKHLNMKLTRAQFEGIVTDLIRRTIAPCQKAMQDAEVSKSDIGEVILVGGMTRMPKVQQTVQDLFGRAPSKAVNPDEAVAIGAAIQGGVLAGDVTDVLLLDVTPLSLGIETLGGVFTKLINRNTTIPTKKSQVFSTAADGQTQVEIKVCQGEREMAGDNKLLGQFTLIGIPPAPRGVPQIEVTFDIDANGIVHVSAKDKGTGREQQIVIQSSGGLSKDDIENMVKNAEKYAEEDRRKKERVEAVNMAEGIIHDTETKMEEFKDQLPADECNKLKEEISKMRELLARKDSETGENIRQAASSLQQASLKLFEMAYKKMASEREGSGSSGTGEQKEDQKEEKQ

Sequence of human mitochondrial DnaK-type chaperone mtHSP70, mature form (human) (P38646 47-679): as above

ATPase activity of 1 μM mtHSP70: concentration of ISCU(N90A) required for half-maximal stimulation in the presence of 5 μM HSC20, double-reciprocal plot [1]: 3.5 µM
ATPase activity of 1 μM mtHSP70: maximal stimulation by ISCU(N90A) in the presence of 5 μM HSC20, double-reciprocal plot [1]: 8 fold
ATPase activity of 1 μM mtHSP70 as a function of added ISCU(N90A) up to 24 μM in the presence of 5 μM HSC20: increase over basal activity [1]: 7 fold
Molecule: human ISCU(N90A), mature form (natural protein)

%S of ISCU(N90A) after adding 1 eq of HSC20 [2]: 99%
%S of ISCU after adding equimolar HSC20 [3]: 31%
Molecule: human mitochondrial DnaJ-type co-chaperone HSC20, mature form (natural protein)

%S of ISCU(N90A) at mole fraction 1.0 of added mtHSP70 [4]: 83%
%S of ISCU(H105A) at mole fraction 1.0 of added mtHSP70 [5]: 0.54%
Molecule: human mitochondrial DnaK-type chaperone mtHSP70, mature form (from UniProt P38646 47-679) (natural protein)

ATPase activity of 1 μM mtHSP70: increase over basal activity with 15 μM ISCU and 4 μM HSC20 [6]: ~15 fold
ATPase activity of 1 μM mtHSP70: maximal stimulation upon adding ISCU in the presence of 5 μM HSC20, double-reciprocal plot [6]: ~17 fold
B1: human iron-sulfur cluster scaffold protein ISCU, wild type, mature form (natural protein, UniProt Q9H1K1 35-167, looked up)
chain: YHKKVVDHYENPRNVGSLDKTSKNVGTGLVGAPACGDVMKLQIQVDEKGKIVDARFKTFGCGSAIASSSLATEWVKGKTVEEALTIKNTDIAKELCLPPVKLHCSMLAEDAIKAALADYKLKQEPKKGEAEKK
